Test results as given in patent US6716811B1, “Compounds having affinity for the granulocyte-colony stimulating factor receptor (G-CSFR) and associated uses” (Affymax, Inc., priority 2000, dated 2004).
Blank lines part the entries; values can stand above or below the molecule they belong to. Where a SMILES comes first, the peptide text is derived from it. Where no end group is shown, it is not given here. MBP = maltose binding protein

What was measured:
G-CSF receptor [1] = target: T1, G-CSF receptor (Homo sapiens, UniProt Q99062); test: 125I-G-CSF competition binding assay of oxidized AF15846 fractions; conditions: HPLC fractions of oxidized AF15846; FIG. 4
T1 sequence (Q99062 25-836): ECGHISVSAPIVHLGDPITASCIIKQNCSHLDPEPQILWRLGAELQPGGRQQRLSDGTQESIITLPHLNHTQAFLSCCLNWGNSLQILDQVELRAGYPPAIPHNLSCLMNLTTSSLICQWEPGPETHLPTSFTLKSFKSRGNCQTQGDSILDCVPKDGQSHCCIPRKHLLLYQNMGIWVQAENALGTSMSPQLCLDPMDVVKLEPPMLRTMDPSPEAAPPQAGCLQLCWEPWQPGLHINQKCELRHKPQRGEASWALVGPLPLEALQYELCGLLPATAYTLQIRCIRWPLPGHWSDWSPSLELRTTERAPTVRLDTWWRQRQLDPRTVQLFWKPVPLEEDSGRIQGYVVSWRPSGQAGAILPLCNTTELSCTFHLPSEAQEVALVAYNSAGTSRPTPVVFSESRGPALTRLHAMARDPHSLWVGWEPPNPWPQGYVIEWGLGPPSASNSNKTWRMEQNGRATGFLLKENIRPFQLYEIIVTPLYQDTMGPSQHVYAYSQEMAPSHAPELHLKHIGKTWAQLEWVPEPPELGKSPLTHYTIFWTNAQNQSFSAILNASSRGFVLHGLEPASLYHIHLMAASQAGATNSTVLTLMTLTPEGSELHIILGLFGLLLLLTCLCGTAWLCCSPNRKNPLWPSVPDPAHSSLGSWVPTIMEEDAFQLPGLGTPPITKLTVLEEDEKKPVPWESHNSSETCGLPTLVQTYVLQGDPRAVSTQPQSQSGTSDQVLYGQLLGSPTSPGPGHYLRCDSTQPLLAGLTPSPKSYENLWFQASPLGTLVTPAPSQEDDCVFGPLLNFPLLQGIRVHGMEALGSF
Text: (§1) Several fractions containing oxidized AF15846 resulting from treatment under the conditions described above were collected subjected to testing in two assays: an ^125I-G-CSF competition binding assay and an ELISA format competitive G-CSF receptor-binding assay.

G-CSF receptor [2] = target: T1, G-CSF receptor; test: ELISA format competitive G-CSF receptor-binding assay; conditions: HPLC fractions of oxidized AF15846
Text: as §1

[3] = Incubation of oxidized peptide at 37° C., HPLC pattern; assay type: physicochemical; conditions: pH 6.0 or pH 7.5, clean profiles only at pH 4.1
Experimental: The oxidized peptide was also reacted with N-ethylmaleimide (NEM) at 37° C. for 1 hour in 100 mM ammonium acetate, pH 4.1 to see if any free Cys residues remained in the molecule. If this were the case, treatment with the alkylating reagent would result in a shift of the HPLC retention time. Upon incubation with NEM, no such shift was seen (FIG. 7). In contrast, when the oxidized peptide was incubated with the disulfide specific reducing agent TCEP, also in ammonium acetate, a shift to a later retention time, consistent with reduced peptide, was found. The reduced peptide was modified with NEM to produce a peptide that eluted even later than the reduced form.
It was necessary to drop to pH 4.1 to obtain clean profiles upon NEM treatment.

NFS-60 cells = test: Cell-based assays using NFS-60 cells; design: species or system Murine
[4] = Stability in cell culture medium (NFS-60-conditioned medium); assay type: in vitro ADME; conditions: overnight incubation in NFS-60-conditioned medium
G-CSFR [5] = target: T2, G-CSFR (Homo sapiens, UniProt Q99062); test: Ba/F3 G-CSFR reporter cell (fos promoter/luciferase) assay; assay type: cell-based; design: expression vectors encoding the full length human G-CSFR; expressed in transfected cells; host or cells: murine IL-3 dependent Ba/F3 cells
T2 sequence (Q99062 25-836): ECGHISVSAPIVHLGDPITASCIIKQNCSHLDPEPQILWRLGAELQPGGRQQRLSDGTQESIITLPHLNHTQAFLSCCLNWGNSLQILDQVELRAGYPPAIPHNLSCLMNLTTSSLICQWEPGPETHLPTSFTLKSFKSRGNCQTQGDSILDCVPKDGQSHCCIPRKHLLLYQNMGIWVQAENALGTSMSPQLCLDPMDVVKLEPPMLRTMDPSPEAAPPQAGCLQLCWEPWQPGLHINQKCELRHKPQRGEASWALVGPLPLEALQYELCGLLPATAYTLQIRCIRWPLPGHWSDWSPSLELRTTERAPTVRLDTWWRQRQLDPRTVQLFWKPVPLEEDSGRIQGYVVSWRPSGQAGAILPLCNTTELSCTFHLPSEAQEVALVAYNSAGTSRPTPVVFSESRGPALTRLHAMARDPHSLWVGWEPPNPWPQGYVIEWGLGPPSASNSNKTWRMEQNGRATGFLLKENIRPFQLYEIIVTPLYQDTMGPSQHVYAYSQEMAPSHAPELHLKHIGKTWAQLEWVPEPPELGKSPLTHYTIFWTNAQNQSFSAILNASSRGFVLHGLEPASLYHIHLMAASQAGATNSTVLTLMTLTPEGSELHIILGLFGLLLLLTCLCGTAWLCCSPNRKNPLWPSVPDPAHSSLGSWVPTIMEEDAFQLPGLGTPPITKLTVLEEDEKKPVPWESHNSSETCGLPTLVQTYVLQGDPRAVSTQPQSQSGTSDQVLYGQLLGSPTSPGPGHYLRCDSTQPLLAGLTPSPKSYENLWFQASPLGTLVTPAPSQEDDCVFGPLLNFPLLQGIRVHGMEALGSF
Experimental: (§2) The bioactivity of selected peptides of the invention was measured in cell-based assays. […] Murine IL-3 dependent Ba/F3 cells were co-transfected with expression vectors encoding the full length human G-CSFR and a luciferase reporter gene controlled by the fos promoter.
Reporter cell assays were performed on the above cell line using peptides of the invention. The cells were maintained in complete RPMI-164Q media containing 10% fetal calf serum, 2 mM L-glutamine, 1X antibiotic-antimycotic solution (Life Technologies), and 10% WEHI-3 conditioned media (source of murine IL-3). For reporter assays, cells were starved overnight in medium which lacks WEHI-3 to reduce luciferase expression to background levels. The cells were then washed twice in PBS, resuspended in media which lacks WEHI-3 conditioned media, and added to wells of a 96-well microtiter plate containing dilutions of peptide or G-CSF at 5×10^4 cells/well. Plates were incubated for 2 hours at 37° C. in a humidified 5% CO2 incubator and luciferase activity was measured by the addition of luciferin (LucLite—Packard Biosciences) to each well. The plates were read in a TopCount (Wallac) microtiter plate luminometer.
To measure the ability of selected peptides of the invention to block G-CSF mediated receptor activation, dilutions of peptide were combined with Ba/F3 G-CSFR reporter cells as described above. After a 30-minute incubation at 37° C., G-CSF was added to each well. The cells were incubated for 2 hours at 37° C. and the amount of luciferase produced was measured as described above.
Ligand mediated G-CSF receptor activation in these cells results in the expression of luciferase, providing a detectable biological signal.
A biosassay was used to measure the potency of AF15846 and other possible G-CSF receptor antagonists. This bioassay utilizes a Ba/F3 cell line containing the rhGCSF receptor and a c-fos promoter/luciferase gene construct (Ba/F3/rhGCSF-R/pFos-1cf). Competent binding of a ligand to the receptor results in expression of lucifierase as the biological readout.

Parental Ba/F3 cells = test: Proliferation of parental Ba/F3 cells; assay type: cell-based, Murine
[6] = target: T3, human thrombopoietin receptor (Homo sapiens, UniProt P40238); test: Proliferation of Ba/F3 cells expressing the human thrombopoietin receptor; assay type: cell-based
T3 construct: expressed in transfected cells; host or cells: Ba/F3 cells
T3 sequence (P40238 26-635): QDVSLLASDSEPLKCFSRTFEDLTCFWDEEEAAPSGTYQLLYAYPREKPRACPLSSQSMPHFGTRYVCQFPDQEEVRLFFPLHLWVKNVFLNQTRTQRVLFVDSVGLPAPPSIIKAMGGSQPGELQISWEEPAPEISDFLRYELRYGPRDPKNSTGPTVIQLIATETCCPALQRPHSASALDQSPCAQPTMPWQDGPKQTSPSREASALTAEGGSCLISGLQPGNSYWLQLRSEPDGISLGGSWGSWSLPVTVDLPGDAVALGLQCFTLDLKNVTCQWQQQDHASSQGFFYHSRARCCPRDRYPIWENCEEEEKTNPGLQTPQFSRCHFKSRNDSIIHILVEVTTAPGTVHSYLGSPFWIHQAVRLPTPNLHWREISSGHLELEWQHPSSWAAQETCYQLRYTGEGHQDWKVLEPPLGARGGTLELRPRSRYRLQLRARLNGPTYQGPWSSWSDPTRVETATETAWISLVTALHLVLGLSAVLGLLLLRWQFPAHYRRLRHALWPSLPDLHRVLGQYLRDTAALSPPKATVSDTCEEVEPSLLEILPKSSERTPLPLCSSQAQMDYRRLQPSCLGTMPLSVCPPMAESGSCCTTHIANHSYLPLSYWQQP
Text: (§3) This is true for most of the MBP fusions tested. Presumably the fusion protein is dimerized through intermolecular disulfide bonds between cysteine residues present in the peptide sequence.

G-CSFR [7] = target: T2, G-CSFR; test: Ba/F3 G-CSFR cell proliferation assay; assay type: cell-based; design: expression vectors encoding the full length human G-CSFR; expressed in transfected cells; host or cells: murine IL-3 dependent Ba/F3 cells; conditions: MBP fusion protein
Experimental: as §2, §3

G-CSFR [8] = target: T2, G-CSFR; design: made in house; conditions: read-out: observed affinity for its receptor; cited from earlier work

activity of fractions in 125I-G-CSF competition binding assay (G-CSF receptor [1]): highest activity | activity of fractions in ELISA format competitive G-CSF receptor-binding assay (G-CSF receptor [2]): highest activity
Molecule: Tris-oxidized species: active oxidized dimer of AF15846 formed in 50 mM Tris, pH 8 (LLDICELKLQECARRCN; also: homodimer of two chains joined by three parallel interchain disulfides, disulfide at 5, other end not in the chain, disulfide at 12, other end not in the chain, disulfide at 16, other end not in the chain)
stability on incubation at higher pH [3]: disulfide scrambling and/or degradation

stability in cell culture medium [4]: no loss of activity was observed
Molecule: EQSNSGWVWV-NH2 [Example 74]
antagonist activity in cell-based assays (NFS-60 cells): antagonist activity at high concentrations

effect on G-CSF response (luciferase) (G-CSFR [5]; increasing concentrations of peptide added before G-CSF, FIG. 3): G-CSFR antagonist
Molecule: CC[C@H](C)[C@H](NC(=O)[C@H](CC(=O)O)NC(=O)[C@H](CC(C)C)NC(=O)[C@@H](N)CC(C)C)C(=O)N[C@@H](CS)C(=O)N[C@@H](CCC(=O)O)C(=O)N[C@@H](CC(C)C)C(=O)N[C@@H](CCCCN)C(=O)N[C@@H](CC(C)C)C(=O)N[C@@H](CCC(N)=O)C(=O)N[C@@H](CCC(=O)O)C(=O)N[C@@H](CS)C(=O)N[C@@H](C)C(=O)N[C@@H](CCCNC(=N)N)C(=O)N[C@@H](CCCNC(=N)N)C(=O)N[C@@H](CS)C(=O)N[C@@H](CC(N)=O)C(=O)O [Example 53, LLDICELKLQECARRCN] (H-LLDICELKLQECARRCN-OH; N-terminus and C-terminus assumed)
effect on G-CSF dose-response curve (luciferase) (G-CSFR [5]; Ba/F3/rhGCSF-R/pFos-lcf, FIGS. 10A, 10B, 11): dose-response curve shifting to higher concentrations

proliferation in response to fusion protein [6]: did not proliferate | concentration of maximal activity in Ba/F3 G-CSFR cell proliferation assay (G-CSFR [7]): 100 nM
Molecule: MBP fusion protein of Example 78: Example 78 peptide fused to the carboxy-terminus of the maltose binding protein (MBP); monomeric and dimeric species ({MBP}-LLDICELKLQECARRCN; cysteine pairing not given here; also: monomeric and dimeric species)
proliferation in response to fusion protein (Parental Ba/F3 cells): did not proliferate

luciferase response of reporter cells (G-CSFR [5]; ligand alone, FIG. 2): dose dependent manner
B1: Granulocyte-colony stimulating factor (protein)
chain: TPLGPASSLPQSFLLKCLEQVRKIQGDGAALQEKLCATYKLCHPEELVLLGHSLGIPWAPLSSCPSQALQLAGCLSQLHSGLFLYQGLLQALEGISPELGPTLDTLQLDVADFATTIWQQMEELGMAPALQPTQGAMPAFASAFQRRAGGVLVASHLQSFLEVSYRVLRHLAQP
Kd (G-CSFR [8]): ~0.1 nM
